Laboratory results reported in paper PMC5547543.

How the values were obtained:
[1] = biological target: Hck (2PA-YEEI) (UniProt P08631)
[2] = biological target: Hck (2PA-YEEI) (UniProt P08631); experiment: SPR; Hck (2PA-YEEI) amine-coupled (EDC/NHS) to a CMD 500 carboxymethyl dextran chip, 6053 RU, BIAcore 2000; Csk, Chk, Chk mutants and chimera as analytes in HBS (10 mM HEPES pH 7.4, 150 mM NaCl, 3.4 mM EDTA, 0.005% Tween 20); global fit to a 1 to 1 model with mass transfer; molecular binding activity from the maximum response

B1: Csk-homologous kinase (Chk), recombinant wild type (enzyme)
chain: MQGHFPAERREGRPRRGTRGQQQLLVSPRFLRAWHPPPVSARMPTRRWAPGTQCITKCEHTRPKPGELAFRKGDVVTILEACENKSWYRVKHHTSGQEGLLAAGALREREALSADPKLSLMPWFHGKISGQEAVQQLQPPEDGLFLVRESARHPGDYVLCVSFGRDVIHYRVLHRDGHLTIDEAVFFCNLMDMVEHYSKDKGAICTKLVRPKRKHGTKSAEEELARAGWLLNLQHLTLGAQIGEGEFGAVLQGEYLGQKVAVKNIKCDVTAQAFLDETAVMTKMQHENLVRLLGVILHQGLYIVMEHVSKGNLVNFLRTRGRALVNTAQLLQFSLHVAEGMEYLESKKLVHRDLAARNILVSEDLVAKVSDFGLAKAERKGLDSSRLPVKWTAPEALKHGKFTSKSDVWSFGVLLWEVFSYGRAPYPKMSLKEVSEAVEKGYRMEPPEGCPGPVHVLMSSCWEAEPARRPPFRKLAEKLARELRSAGAPASVSGQDADGSTSPRSQEP
Q: Which inhibition of the kinase activity of Hck (2PA-YEEI) (0.5 μM) on the cdc2 (6-20) peptide after pre-incubation with Chk; more than 60% at 1.5 μM, up to 8.3 μM Chk [1] does the source give for B1 here?
A: 80%

Q: And the Kd [2]?
A: 64 nM

Q: And the koff [2]?
A: 0.000272 s⁻¹

Q: And the kon [2]?
A: 4250 M⁻¹ s⁻¹

Q: And the molecular binding activity (MBA) at 2.2 μM Chk ([2]; scale: mol of analyte bound per mol of immobilized Hck)?
A: 0.46
